# Values of other authors in publication PMC3792554.
# Target: IL-18 (Homo sapiens) (UniProt Q14116)
# Sequence (Q14116 37-193): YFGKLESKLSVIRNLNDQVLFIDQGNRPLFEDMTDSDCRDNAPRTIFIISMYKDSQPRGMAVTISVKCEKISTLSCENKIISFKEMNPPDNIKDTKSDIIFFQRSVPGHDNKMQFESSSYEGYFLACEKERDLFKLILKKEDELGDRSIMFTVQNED
# Sequence of IL-18BP (O95998 31-194): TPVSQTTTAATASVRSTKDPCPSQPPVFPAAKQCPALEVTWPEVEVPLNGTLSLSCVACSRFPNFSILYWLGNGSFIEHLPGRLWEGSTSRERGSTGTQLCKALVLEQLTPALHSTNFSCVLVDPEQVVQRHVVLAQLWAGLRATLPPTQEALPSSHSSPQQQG
substance,measurement,value
IL-18BP (from UniProt O95998),Kd,0.4 nM
